± gives the uncertainty stated by the source.
Experiment: amyloid nucleation score (Sup35N fusion, yeast selection) (log enrichment); library NNK3; higher = more nucleation; inactive = no reads after selection
Summary of the method: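 For the nucleation score, DiMSum gave the log enrichment of output over input reads, centred on the mode score of non-aggregating sequences. Psi-negative yeast expressing Sup35N fused to peptides of 20 random codons were induced with 100 μM copper sulfate for 24 hours and grown 7 days at 30°C on medium lacking adenine and uracil. Input and output plasmid inserts were Illumina-sequenced, and sequences with under 100 input reads were excluded.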

Substance	amyloid nucleation score
VACRFHMCLWLGRVLDYAKN	1.1 ± 0.14
IIITVVGSCYSV	1.7 ± 0.071
CLILCLIKYIERRFCWCFPW	inactive
SLTRQLEPADNTDPRCVKSV	inactive
VHYSWSTFFD	0.593 ± 0.27
RNSFVLWMVSSV	-0.01 ± 0.45
MLSDSLHHSSNIVTLVTRGS	inactive
TFVNLFIVPGKGQSVTGGCE	1.45 ± 0.13
NYFYRPYSEDSVITQMIVVV	inactive
CFLRKTSNASLIHPSRDTNN	inactive
HNVFST	inactive
TTRRVGCLMGFLVDFRIKSC	inactive
NVGTS	inactive
SVHWEVRFYMDRYVLAYAVT	inactive
WNLLWLLFFLCLCHCGIMWK	inactive
GSFSCWYCEVVNVV	inactive
MKLWFNTARLDMKVSKTVYS	inactive
CLYNGMWSCVEWNSKGSMHL	1.26 ± 0.069
TSTFARDKVDFAVLSLF	inactive
TQPDLV	inactive
LGMIHFVFMYFETYCYTYTI	inactive
FELRGTLGG	0.026 ± 0.37
ARLRVVIDRCLYRGLSQLQP	inactive
CRLVINNYMSR	2.83 ± 0.065

Substance	amyloid nucleation score
PALMDLGYRYVSRNFDL	inactive
IIAPRLY	inactive
IRSVKISSGYLLISYGDNNW	0.687 ± 0.18
YGSNSLPYKTGVYVKLSCN	inactive
IARKQPLLSMATTSSQVFRA	inactive
DFHYFKRVRNQGWNQKRKRY	inactive
EYENLYLRVQFSYMLLFLVM	-1.33 ± 1.8
NYVVSFYISSNFWYDVVNCD	0.294 ± 0.22
DARNET	inactive
FGLNSCTSYKYQLSMSGFST	-0.491 ± 0.66
YSKFFTENVYNSISGAMPHF	inactive
WQLEKIDDDYLRVTVDEPSE	inactive
SWNTL	inactive
SVSGRPGEMFSRYYWIYGMY	inactive
RNIQWRFIP	inactive
FNVPS	0.673 ± 0.42
NIIVWPVCGILLYTHSIS	inactive
TRKDDFDLSGCSR	inactive
MNEGLYS	inactive
IMMIDWWYMFGCYACLETCH	inactive
WYGVVDVDW	inactive
RRIASEWDLTTVPLLLV	inactive
HMFMRNLEMRVGHSFHRLRD	inactive
WDCVNSAHWVLDMFSNSYVS	inactive

Substance	amyloid nucleation score
DFRSSRLHSIITTQFIYFYD	inactive
NPIRGYLMYSPALSPLVG	inactive
IAMWDAMCFYWKIMSGSIMV	inactive
IRPSHYIYLRTN	inactive
FMHSLTGNSGWGKGYRKSHV	1.04 ± 0.19
YGRLLVGFLTITV	inactive
WKRKRRLRELGITKVILRVL	inactive
KNPTILAFSLGVRGETNRCV	inactive
QIHNRTMPCWRSKATVLGKT	inactive
IALGRFTCNGIVVVSF	inactive
SKTFNDPFLLNHLNTFIKPR	-0.259 ± 0.93
VWILCNRPKRRMIYLTQCRM	inactive
FDNVISILPPYFTSFSG	inactive
GDMFGQPCRTCMFDLLKPVS	inactive
DFCLCNIRVFPEYRSHYGFG	inactive
KRGNSANPS	inactive
RSSFVWTSRHFVV	inactive
AIMFLFLYTRGAYAYYLGLL	inactive
DLWDTCCLII	inactive
FVLMPSSFYNYWTTSEDFRS	inactive
KSNSSLTRRARYETSTSSSP	inactive
YEYWYFCRDDNNFVYLIR	inactive
RPCNVMEKRDSTNIVTRFT	inactive
KSASKVGLMKAYRNASRTVI	inactive

Substance	amyloid nucleation score
VPNDKVGKLRIMGREWVRSH	inactive
MPWKSMAHFYALEFDLRCLR	0.619 ± 0.22
YSLRVHSAYIVVKYII	inactive
YYNVAMRCRSHHTRMSIFWC	inactive
NRTDHTLNCVEIFAWIWFNL	inactive
LNVTLIMNRRLFMGTFHLW	inactive
SFDSLVISDTVSRDRCLQII	inactive
VVLDSVVWGFDELSRLMSGA	inactive
IKQDVASSVFM	inactive
LFFSNT	inactive
NWNIGPRKLCKWRCR	inactive
SSMSSTSALLYMHDNFWCAI	inactive
FCSPSFYFGADGDTT	1.99 ± 0.058
MDVVLRINLKQGRYPGTNAH	2.1 ± 0.091
CMFVVFQLVTGHFTLLQYHG	1.82 ± 0.077
PGMISSQGSYTFRAWAVSLR	inactive
NCDILVLCLSCIADGRQSYE	2.96 ± 0.078
VSRSRER	inactive
KWRYLFDMSW	inactive
SAIKYPLSRRCMWAGSSLLG	inactive
SFIIYCPVKKPQIVFHRLPS	2.36 ± 0.056
SPFCFSCIHACWGNEKIRWV	inactive
TCTEGMGCPMSKAARVLLTR	inactive
RSVVLLAMMSGYRDISIFRT	inactive

Substance	amyloid nucleation score
YCCIFRRFNGKNFFSCRG	inactive
SCGYTLWLYRCEIQRRV	inactive
RVVYL	-0.667 ± 1.8
MSSYKCSECLRGHRGTPLPV	inactive
FWMCVSVSARWAPTSLGFGS	inactive
NSGAWLSMEMMPCRMSVYAC	inactive
SSFEFVE	0.698 ± 0.22
GERHMVLSVNLRCVTVNVYW	inactive
NRNYVGPWTLKMGLVC	inactive
CGSVSSI	inactive
TSPGFYGWMSNSTSSNDIVA	inactive
NMNSWAMQWTICTHSTFVLS	inactive
HMLYLNLFGIIGIIFCDWNM	inactive
YCVLLRCNFFRSL	inactive
IRLVMETLGNLGIADKSMRV	inactive
LVYRMMGSWVGPIRVYFNML	inactive
IFSMMLF	inactive
WCFCGWMYIISFLSYKKHIM	inactive
QELLPIRYLVE	inactive
THLSVEFS	inactive
HFILFSSYPFYF	inactive
SVLYRWGYRTGWEL	0.128 ± 0.52
